From PMC3648612 (Nature structural & molecular biology, 2013)

How the values were obtained:
[1] = target: T1, Med12 (Srb8), S. cerevisiae (S. cerevisiae, UniProt P25648 1-1427); experiment: cryo-EM structure
T1 sequence: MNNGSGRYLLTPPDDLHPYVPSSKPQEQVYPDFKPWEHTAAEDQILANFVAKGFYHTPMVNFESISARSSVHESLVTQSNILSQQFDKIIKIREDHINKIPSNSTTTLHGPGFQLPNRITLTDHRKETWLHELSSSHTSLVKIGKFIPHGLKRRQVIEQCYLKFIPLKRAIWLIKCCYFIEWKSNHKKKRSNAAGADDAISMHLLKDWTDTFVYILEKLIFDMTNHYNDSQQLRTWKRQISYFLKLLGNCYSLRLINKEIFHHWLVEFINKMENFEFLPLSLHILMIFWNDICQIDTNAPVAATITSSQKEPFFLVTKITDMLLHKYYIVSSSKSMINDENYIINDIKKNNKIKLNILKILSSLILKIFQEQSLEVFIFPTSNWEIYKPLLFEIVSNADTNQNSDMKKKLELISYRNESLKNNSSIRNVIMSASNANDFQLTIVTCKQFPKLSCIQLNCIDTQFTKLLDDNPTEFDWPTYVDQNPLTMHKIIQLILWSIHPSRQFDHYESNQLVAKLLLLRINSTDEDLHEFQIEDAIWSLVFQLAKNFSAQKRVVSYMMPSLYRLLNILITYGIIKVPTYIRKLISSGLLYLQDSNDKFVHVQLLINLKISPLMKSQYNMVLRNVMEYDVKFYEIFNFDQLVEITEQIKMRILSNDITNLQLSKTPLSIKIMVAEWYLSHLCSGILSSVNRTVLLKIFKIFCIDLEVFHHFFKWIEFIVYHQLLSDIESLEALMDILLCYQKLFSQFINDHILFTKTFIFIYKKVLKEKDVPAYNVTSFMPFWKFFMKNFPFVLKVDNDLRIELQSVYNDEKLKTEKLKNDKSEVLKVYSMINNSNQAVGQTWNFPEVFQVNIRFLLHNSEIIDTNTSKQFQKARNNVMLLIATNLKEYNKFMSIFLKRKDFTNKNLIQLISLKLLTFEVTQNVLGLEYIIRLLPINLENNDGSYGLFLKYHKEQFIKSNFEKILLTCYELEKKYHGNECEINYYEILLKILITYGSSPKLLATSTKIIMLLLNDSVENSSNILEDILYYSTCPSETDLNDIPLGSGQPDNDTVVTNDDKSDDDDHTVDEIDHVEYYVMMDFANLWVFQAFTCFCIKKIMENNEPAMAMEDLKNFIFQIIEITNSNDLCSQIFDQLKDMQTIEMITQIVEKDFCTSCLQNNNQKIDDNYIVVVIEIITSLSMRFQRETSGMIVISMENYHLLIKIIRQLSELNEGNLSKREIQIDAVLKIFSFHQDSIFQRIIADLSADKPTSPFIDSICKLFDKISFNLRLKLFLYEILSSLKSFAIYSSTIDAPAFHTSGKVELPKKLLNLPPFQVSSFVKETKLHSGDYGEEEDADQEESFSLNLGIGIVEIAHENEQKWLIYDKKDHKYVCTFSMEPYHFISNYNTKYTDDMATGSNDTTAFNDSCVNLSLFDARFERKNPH

[2] = target: T2, Cdk8 (Srb10) with a C-terminal TAP tag, S. cerevisiae (S. cerevisiae, UniProt P39073 1-555); experiment: tandem affinity purification
T2 sequence: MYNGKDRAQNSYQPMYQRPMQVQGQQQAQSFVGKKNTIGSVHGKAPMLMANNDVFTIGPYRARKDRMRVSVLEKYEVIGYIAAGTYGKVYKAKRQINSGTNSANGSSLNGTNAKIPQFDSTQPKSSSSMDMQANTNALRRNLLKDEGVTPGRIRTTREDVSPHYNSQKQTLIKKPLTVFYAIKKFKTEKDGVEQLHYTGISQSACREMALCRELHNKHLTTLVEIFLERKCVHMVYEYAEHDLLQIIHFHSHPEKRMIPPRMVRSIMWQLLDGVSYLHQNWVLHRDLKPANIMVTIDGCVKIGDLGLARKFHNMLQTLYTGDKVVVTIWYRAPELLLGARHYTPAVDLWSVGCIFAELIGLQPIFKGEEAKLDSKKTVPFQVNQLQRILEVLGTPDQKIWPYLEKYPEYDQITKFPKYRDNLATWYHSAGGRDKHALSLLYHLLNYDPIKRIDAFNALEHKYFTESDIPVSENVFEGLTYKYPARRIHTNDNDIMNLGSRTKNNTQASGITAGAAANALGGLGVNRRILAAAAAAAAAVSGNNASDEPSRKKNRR

Binder | binding result [1] | binding result [2]
CycC (Srb11), S. cerevisiae (natural protein) MSGSFWTSTQRHHWQYTKASLAKERQKLWLLECQLFPQGLNIVMDSKQNGIEQSITKNIPITHRDLHYDKDYNLRIYCYFLIMKLGRRLNIRQYALATAHIYLSRFLIKASVREINLYMLVTTCVYLACKVEECPQYIRTLVSEARTLWPEFIPPDPTKVTEFEFYLLEELESYLIVHHPYQSLKQIVQVLKQPPFQITLSSDDLQNCWSLINDSYINDVHLLYPPHIIAVACLFITISIHGKPTKGSSLASAASEAIRDPKNSSSPVQIAFNRFMAESLVDLEEVMDTIQEQITLYDHWDKYHEQWIKFLLHTLYLRPASAI | binds | binds
Med13 (Srb9), S. cerevisiae (natural protein) MSSDASTYRLEDVLSSFYRVEKIKKINYHQYISKAQNDQWSIQMEFMLRKQDPKTLVALLSRDLWCFSINDDPVPTPPAIEHKPVSPDKIGTFTADYSKPNLPPHYALFLKALRRKIYINLALGSHNKLIQFGNACISLSGVPNYLVQLEPHLFVNGDLTVSLCAKNMGLVPMKEENLEESFLSKHALYLAPSGIRMHLAPASKQGYLITPPKHTELLLTTLSVSHGINLQNKKNLKWVAVVPDLGHLNGHTPTIASYLTPLLEAKKLVWPLHLIFAQPVADIENSTSGDPSEFHCLQDALDAIDDFIQLKQTAAYRTPGSSGVLSSNIAGTNPLSSDGAYTEQFQHYKNNSISSQPASYHSVQETNKISPKDFSPNFTGIDKLMLSPSDQFAPAFLNTPNNNINENELFNDRKQTTVSNDLENSPLKTELEANGRSLEKVNNSVSKTGSVDTLHNKEGTLEQREQNENLPSDKSDSMVDKELFGEDEDEDLFGDSNKSNSTNESNKSISDEITEDMFEMSDEEENNNNKSINKNNKEMHTDLGKDIPFFPSSEKPNIRTMSGTTKRLNGKRKYLDIPIDEMTLPTSPLYMDPGAPLPVETPRDRRKSVFAPLNFNPIIENNVDNKYKSGGKFSFSPLQKEEALNFDISMADLSSSEEEEDEEENGSSDEDLKSLNVRDDMKPSDNISTNTNIHEPQYINYSSIPSLQDSIIKQENFNSVNDANITSNKEGFNSIWKIPQNDIPQTESPLKTVDSSIQPIESNIKMTLEDNNVTSNPSEFTPNMVNSEISNLPKDKSGIPEFTPADPNLSFESSSSLPFLLRHMPLASIPDIFITPTPVVTISEKEQDILDLIAEQVVTDYNILGNLGIPKIAYRGVKDCQEGLITTTMLQLFSTFDRLNGNDTISKFYNMKQPYVFVKKHHELIKVKHDSQPFIKFLNFRPPNGIKNFKSLLLSSSFKEDCLSFAPTLSQTYINQELGFCELLKLTNEDPPGLMYLKAFDKNKLLLLAAQIVSYCSNNKNSIKNVPPILIILPLDNATLTELVDKANIFQVIKNEVCAKMPNIELYLKVIPMDFIRNVLVTVDQYVNVAISIYNMLPPKSVKFTHIAHTLPEKVNFRTMQQQQMQQQQQQQQQQQNNSTGSSSIIYYDSYIHLAYSRSVDKEWVFAALSDSYGQGSMTKTWYVGNSRGKFDDACNQIWNIALNLASKKFGKICLILTRLNGILPDDELMNWRRLSGRNIHLAVVCVDDNSKISFIDEDKLYPSFKPIYKDTRFGGRMDMTRLYDYEIRDIDQDIHGIVFQHPFPLAHSQHRCAIRSGALIKFKKCDGDTVWDKFAVNLLNCPHSDSTQLLETILEEFRNLAALNVWYGLSDGEDGHIPWHILAVKKMMNTLVHTRVKIANTSAATVHTATSSSIILSDK | binds | –
